Experimental findings from US20260117244A1, “INHIBITORY RNA FOR THE CONTROL OF PHYTOPATHOGENS” (priority 2021, published 2026) are described below.

The test system of this data set is E. necator. Put plainly: SIGS, E. necator spore production on V. vinifera (whole plant and leaf disc assays). Type of data set: in vivo, Erysiphe necator. Particulars: for visual powdery mildew coverage and density: V. vinifera leaves, 9 days post infection, vs buffer alone. The text has this: Spore suspension concentrations were normalized to the input tissue weight (g) before being normalized to the control.
Spore suspension concentrations were normalized to the input tissue weight (g) before being normalized to the control. CYP51 is included as a positive control gene required for growth. Error bars±SEM. *p<0.05 by Student's T-Test (unpaired, 2-tailed) compared to control.
With SIGS methods optimized and gene targets identified, we sought to translate these methods and targets to grape powdery mildew (FIG. 2). New long dsRNAs were designed for each target tested as there is significant sequence divergence between G. orontii MGH1 and E. necator c. First, procedures were optimized for the grapevine system by silencing CYP51. Spore production was reduced by 62% and 45% in grapevine whole plant and leaf disc assays, respectively when treated with long dsRNA against the same region of CYP51 as dsRNA-1 against G. orontii MGH1 CYP51 (FIG. 2; FIG. 7, panel a). […] We tested SIGS against the effective targets including AATF in the grapevine system, as we were interested in ascertaining whether they would show a statistically significant difference in grape powdery mildew spore production. […] The average reduction of powdery mildew spore production for SIGS against CYP51 and AATF was greater in E. necator compared to G. orontii (FIG. 4 and FIG. 7). One notable difference is G. orontii has 2 copies each of CYP51 and AATF while E. necator has 1 copy of each of these genes. SIGS against the other effective targets also were effective in reducing powdery mildew of grapevine (FIG. 7).
As the full G. orontii MGH1 OEC60/OEC61 is conserved in other powdery mildews (Table 6) and has the potential to interact with both TCP13 and TCP14, we tested whether findings in the G. orontii MGH1-Arabidopsis pathosystem can translate to an agriculturally important pathosystem, powdery mildew of grapevine. To do so, we identified an OEC60/OEC61 homolog in E. necator c (Jones et al., 2014) and designed a long dsRNA to target this gene in the same region effective for G. orontii. Targeting of OEC60/OEC61 in Erysiphe necator by SIGS reduces grape powdery mildew production on V. vinifera leaves to 71% of control treated plants (FIG. 12), similar to the reduction seen with the Arabidopsis powdery mildew (FIG. 10, panel d).

B1: EnCYP51: long dsRNA against E. necator CYP51 (target SEQ ID NO:182) (nucleic acid)
chain: TGTCAACGCCGAAGAGATTTACACTAATTTAACAACTCCGGTCTTTGGAAGAGATGTTGTATTTGATTGTCCAAATTCCAAACTCATGGAACAAAAAAAGTTTATGAAAACGGCTCTTACCATTGAAGCGTTCCATTCCTATGTAACAATAATACAAAATGAAGTAGAGGCATATATAAACAATTGCGTTAGCTTTCAGGGTGAGAGTGGCACAGTAAACATCTCAAAAGTTATGGCGGAAATCACTA
modifications: misc_feature 1..248: note = Inhibitory double stranded RNA; listed as RNA
As to B1, the “visual powdery mildew coverage and density” value was “Less powdery mildew density”. In addition, the “visual powdery mildew coverage and density” value (listed as E. necator CYP51 dsRNA) was “less powdery mildew coverage and density”. For the same molecule, the “reduction in spore production” value (grapevine leaf disc assay, long dsRNA) was determined as 45%. The “reduction in spore production” value (grapevine whole plant assay, long dsRNA) was found to be 62%.

B2: E. necator AATF dsRNA: long dsRNA against E. necator AATF (target SEQ ID NO:197) (nucleic acid)
chain: TGATAGCGATCATGATAGATGCGACTCAAATTTTAGTAATAGGAATGACAAAGAGATTATTAAACGGTCTGAAATTCAAAGATTTATGGAAGAAGATCAAAAAGCAATATTATCAACTTTATCTCAAGCAGCAAAGGTAGATGCAGAAAAGGGAAGGGCAATTAAGTCACAACAAATGAGATTCGATTCTCTTCTAAATACGCGAATGGAGCTGCAGAAAGCTCTGATAGCAGTTAATTCTCTTACTACCTTTCAAGATGATAATTCTATTTTCTCCAAGGATAAGCCATACGAAGCAGC
modifications: misc_feature 1..300: note = Inhibitory double stranded RNA; listed as RNA
For B2, the “average reduction in spore production” value (long dsRNA, assay format not stated (FIG. 7)) worked out at 53%.

B3: E. necator OEC60/OEC61 dsRNA: long dsRNA against E. necator homolog of OEC60/OEC61 (target SEQ ID NO:199) (nucleic acid)
chain: CTGCTACTAGCTTTCATGGTATGAAACTCATTATTGGTGTTTTTATTGGTGAAACTGGTTGCTCTGGCGCTAAAGAGCAGGTGAACCACATCGTTAAATGGGGTAAATGGGATTTGGTAGAACTCATTGTGATCGGGAATGAGGCTCTGTTTAGTGGTCATGCGTCACCCGAAGAGTTAGCCGAATTTATTACCTCGACTAAAATCACCCTCAGATCAGC
modifications: misc_feature 1..220: note = Inhibitory double stranded RNA; listed as RNA
For the molecule B3, the “effect on grapevine powdery mildew growth and reproduction / spore production” value (E. necator on V. vinifera, SIGS) is listed as “reduces spore production”. Where the note is “V. vinifera leaf discs (FIG. 12), long dsRNA”, the “grape powdery mildew spore production relative to control treated plants” value is given as 71 % of control.
